Results as given in US20020045215A1.

Biological target: Epidermal growth factor receptor of HCT-116 cells (human (HCT-116, a human colon cancer cell line)) (UniProt P00533)
Assay: cell-based or functional assay

EGF-R Tyr-K activity in HCT-116 cells (reduction against cells exposed to MBP alone or control cells): 80 to 90%
Substance: ERRP fusion protein bound to MBP (from UniProt Q01279 25-448)
